Experimental data published in patent US20210253725A1 (BIONTECH, published 2021).
Where a chain is given by its changes, count along the chain named. Names may count otherwise.

T1: CD27 expressed on the cell surface (HT1080_CD27 cells) (human, UniProt P26842 20-260)
T1 construct: whole, on cells; also called K562_CD27
T1 sequence (looked up): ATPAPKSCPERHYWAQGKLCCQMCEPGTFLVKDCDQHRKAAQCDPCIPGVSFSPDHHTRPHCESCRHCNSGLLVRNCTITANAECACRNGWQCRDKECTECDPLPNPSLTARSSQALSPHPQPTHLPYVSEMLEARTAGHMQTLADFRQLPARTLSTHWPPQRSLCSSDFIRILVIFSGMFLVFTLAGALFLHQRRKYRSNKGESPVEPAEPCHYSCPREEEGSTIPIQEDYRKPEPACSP

T2: CD27 protein (His-tagged, Sino Biological Inc. 10039-H08B1) (human, UniProt P26842 20-192)
T2 construct: bought; coated onto ELISA plates; also called human CD27; recombinant protein; not shown: His tag
T2 sequence (looked up): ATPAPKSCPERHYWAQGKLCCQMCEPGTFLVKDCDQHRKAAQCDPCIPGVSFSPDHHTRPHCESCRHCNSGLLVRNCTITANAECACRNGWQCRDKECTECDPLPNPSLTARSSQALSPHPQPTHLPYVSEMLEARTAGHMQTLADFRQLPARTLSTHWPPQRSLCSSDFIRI

B1: P018.S.09.A.D04 (antibody, V domains shown)
VH: QSVEESGGRLVTPGTPLTLTCTVSGFSLSSNAISWVRQAPGKGLEWIAIITHSDNTFYASWAKGRFTISKASTTVDLKVTSPTTEDTATYFCARDGYVSSSGTYMGGYFDLWGQGTLVTVSS
VL: DPVLTQTPSPVSAAVGGTVTINCQASQIIYNDKNLAWYQQKPGQPPKLLIYYASTLASGVSSRFKGSASGTQFTFTISGVQSDDAATYYCQGEFSCSSADCIAFGGGTEVVVK
notes: V regions on human Ig constant parts; also called AB27_151
B2: P018.S.04.A.D05 (antibody, V domains shown)
VH: QSLEESGGRLVTPGTPLTLTCTASGIDLSRHAINWVRQAPGKGLEYIGTIYASGSTFYASGAKGRFTISKTSTTVDLGITSLTTEDTATYFCARGITIEWFDLWGQGTLVTVSS
VL: AAVLTQTPSSVSAAVGGTVTINCQSSPSVYSNYLSWFQQKPGQPPKLLIYGAATLASGVPSRFRGSGSGTEFTLTITDVQSDDAATYYCLGGYSDTADTIFGGGTEVVVK
notes: V regions on human Ig constant parts; also called AB27_73
B3: P018.S.07.A.D03 (antibody, V domains shown)
VH: QEQLKESGGGLVTPGGTLTLTCTVSGFSLSGHDMGWVRQAPGKGLEWIGIIGSNSKTYYTNWAKGRFTISKTSTTVGLRITSPTTEDTATYFCTVVGPGVGGFYFDLWGQGTLVTVSS
VL: DVVMTQTPASVSDPVGGTVTIRCQASQSIGSDLAWYQQKPGQPPKLLIYAASTLASGVPSRFSGSGSGTEYTLTISDLESADAATYYCQCTYVGSTYLGAFGGGTEVVVK
notes: V regions on human Ig constant parts; also called AB27_122
B4: P018.S.01.A.F05 (antibody, V domains shown)
VH: QEQLEESGGDLVKPEGSLTLTCTASGFSFSSSYWICWVRQAPGKGLEWIGCIITGRGNTYYANWAKGRFTISKTSSTTVTLQMTSLTAADTAIYSCARGPGGADPVNLWGPGTLVTVSS
VL: DVVMTQTPASVSEPVGGTVTIKCQASQSIYSNLAWYQQKPGQPPKLLIYRASTLTSGVPSRFKGSGSGTQFTLTISDLESADAATYYCQCTYDGSSYVPNAFGGGTEVVVK
notes: V regions on human Ig constant parts; also called AB27_20
B5: P018.S.07.A.H06 (antibody, V domains shown)
VH: QSLEESGGDLVQPGASLTLTCKASGIDLSSYWMCWVRQTPGKGLEWIGCIATYSSVTYYANWAKGRFTISKPSSTTVTLQMTSLTAADTATYFCARDPYSFNGSLFTLWGPGTLVTVSS
VL: ALVMTQTASPVSAAVGGTVTIDCQASQNIGTYLAWYQQKPGQPPKLLIYTASSLASGVPSRFKGSGSGTQFTLTISDLESDDAATYYCAGYKNYNNDDNGFGGGTEVVVK
notes: V regions on human Ig constant parts; also called AB27_134
B6: P018.S.08.A.H02 (antibody, V domains shown)
VH: QSLEESGGRLVTPGTPLTLTCTASGFSLSYYYMTWVRQAPGKGLEWIGITGGGGDTYYGTWAKGRFTISKTSTTVDLKMTSPTTEDTATYFCARGTDGAAHTGFALWGQGTLVTVSS
VL: DIVMTQTPASVEAAVGGTVTIKCQASEDISSRLSWYQQKPGQPPKLLIYLASTLASGVPSRFKGSGSGTQFTLTISDLESADAATYYCQSSSYGTSTIYGTFGGGTEVVVK
notes: V regions on human Ig constant parts; also called AB27_142
B7: P018.S.08.A.E02 (antibody, V domains shown)
VH: QSLEESGGRLVTPGGSLTLTCTVSGIDLSSYDMNWVRQAPGEGLEWIGAISTGGDTHYTNWAKGRFTISKTSTTVDLKMTSLTAADTATYFCARGYYTLALWGQGTLVTVSS
VL: DPVLTQTPASVEAAVGGTVTIKCQASQSINSWLSWYQQKPGQPPKRLIYDTSTLESGVPSRFSGGESGTEFTLTISDLESDDAATYYCQSYYYITSSYAITFGGGTEVVVK
notes: V regions on human Ig constant parts; also called AB27_139
B8: P018.S.07.A.D04 (antibody, V domains shown)
VH: QSLEESGGRLVTPGGSLTLTCTVSGIDLSSYAMGWVRQAPGKGLEWIGIISSSGSTYYASWANGRFTISKTSTTVDLKVTSPTTEDTATYFCARDGDSGRGYYFHFWGQGTLVTVSS
VL: AFELTQTPASVSAAVGGTVTIKCQASEDIYSLLAWYQQKPGQPPKLLIYDASDLASGVPSRFSGSGSGTEYTLTISDLESADAAIYYCQQGYTTVTIVDNVFGGGTEVVVK
notes: V regions on human Ig constant parts; also called AB27_123
B9: P018.S.07.A.F04 (antibody, V domains shown)
VH: QSLEESGGRLVTPGTPLTLTCTVSGFSLSSHAMSWVRQAPGKGLEYIGIIDTDASASYASWAKGRFTISRTSTTVDLKITSPTTEDTATYFCARDGGYTDYSYYAMDLWGPGTLVTVSS
VL: DIVMTQTPASVEAAVGGTVTIKCQASETIYVNLAWYQQKPGQPPKLLIYRASTLASGVSSRFKGSGSGTEFTLTISDVKSVDAATYYCHQAYRRSDVGNIFGGGTEVVVK
notes: V regions on human Ig constant parts; also called AB27_128
B10: P018.S.01.A.H06 (antibody, V domains shown)
VH: QEQLKESGGRLVKPDETLTITCTASGFSLSRYDMSWVRQAPGKGLEWIGSIWSDGDTDYANWAKGRFTISKTSTTVDLKITSPTTEDTATYFCARGYTAWSLWGPGTLVTVSS
VL: ALVMTQTPSPVSAAVGGTVTISCQSSESVVGNNALSWFQQKPGQPPKLLNYQASTLASGVSSRFSGSGSGTQFTLTISGVQSDDAATYYCQGTYYSSGWYFAFGGGTEVVVK
notes: V regions on human Ig constant parts; also called AB27_26
B11: P018.S.05.A.G04 (antibody, V domains shown)
VH: B10 VH with T17S, I20L, T75M, A94G, S101N
VL: B10 VL with A14T, V19L, N50I
notes: V regions on human Ig constant parts; also called AB27_93
B12: P018.S.09.A.H03 (antibody, V domains shown)
VH: QSLEESGGRLVTPDESLTLTCTVSGFSLSSNAMIWVRQAPGKGLEWIGIIDTGGSAYYASWAKGRFTISKTSTTVDLKITSPTTEDTATYFCARDRYTDSSGYNLWGQGTLVTVSS
VL: DIVMTQTPASVEAAVGGTVTIKCQASQSIGASLAWYKQKPGQPPKLLIYSASWLASGVPSRFKGSGSGTEFTLTISDLASADAATYYCQSYYYRSSSGYGYAFGGGTEVVVK
notes: V regions on human Ig constant parts; also called AB27_160
B13: P018.S.05.A.C06 (antibody, V domains shown)
VH: QSLEESGGRLVTPGTPLTLTCTASGFSLSNYYITWVRQAPGEGLEWIGTISTAGNTYFASWAKGRFTISRTSTTVDLKMTSPTTEDTATYFCARDGAGDSNYYRNLWGQGTLVTVSS
VL: DIVLTQTPASVEAAVGGTVTIKCQASQSIDRFLAWYQQKPGQPPKLLIVDASTLESGVPSRFSGSGSGTEFTLTISDLESDNAATYYCQQGYSISDIDNVFGGGTEVVVK
notes: V regions on human Ig constant parts; also called AB27_85
B14: P018.S.06.A.E01 (antibody, V domains shown)
VH: B13 VH with N30S, I33M, A62V, A93T
VL: B13 VL with D1A, V3D, L4M, Q27E, S93A
notes: V regions on human Ig constant parts; also called AB27_104
B15: P018.S.07.A.F03 (antibody, V domains shown)
VH: B13 VH with K63N
VL: B13 VL
notes: V regions on human Ig constant parts; also called AB27_127
B16: P018.S.06.A.F01 (antibody, V domains shown)
VH: B13 VH with N30S, I33M
VL: B13 VL with D1A, I2Y, V3D, L4M, Q27E
notes: V regions on human Ig constant parts; also called AB27_107

Experiments:
[1] = target: T1, CD27 expressed on the cell surface …; test: cellular binding assay, HT1080_CD27 cells
[2] = target: T1, CD27 expressed on the cell surface …; test: cell-based or functional assay
[3] = target: T2, CD27 protein (His-tagged, Sino …); test: ELISA on coated His-tagged CD27
Also: test concentration or dose not given here.

Row | Binder | Cellular binding assay [RFU] [1] [RFU] | IL-8, cross-linked by F(ab')2 fragment [abs. corr.] [2] [abs. corr.] | IL-8 [abs. corr.] [2] [abs. corr.] | ELISA [abs. corr.] [3] [abs. corr.]
1 | B1 | 376 | 1.66 | 0.688 | 3.35
2 | B2 | 292 | 1.08 | 0.241 | 3.33
3 | B3 | 409 | 1.68 | 0.569 | 3.34
4 | B4 | 369 | 1.18 | 0.559 | 3.35
5 | B5 | 327 | 1.23 | 0.422 | 3.35
6 | B6 | 352 | 1.91 | 0.328 | 3.58
7 | B7 | 387 | 1.55 | 0.315 | 3.33
8 | B8 | 393 | 1.81 | 0.449 | 3.33
9 | B9 | 296 | 1.58 | 0.424 | 3.35
10 | B10 | 422 | 2.18 | 0.27 | 3.44
11 | B11 | 375 | 1.19 | 0.393 | 3.35
12 | B12 | 268 | 2.13 | 0.578 | 3.54
13 | B13 | 351 | 1.11 | 0.539 | 3.35
14 | B14 | 354 | 1.55 | 0.525 | 3.35
15 | B15 | 380 | 1.41 | 0.444 | 3.53
16 | B16 | 310 | 1.08 | 0.405 | 3.4
